Publication PMC3498133 (2012)
Where “and” joins values, the source holds several entries; their conditions need not be identical. Equal values may be shown once.

Biological target: SpcU (Pseudomonas aeruginosa, UniProt O66100 1-137)
Experiment: ITC

B1: ExoU (natural protein)
chain: MHIQSLGATASSLNQEPVETPSQAAHKSASLRQEPSGQGLGVALKSTPGILSGKLPESVSDVRFSSPQGQGESRTLTDSAGPRQITLRQFENGVTELQLSRPPLTSLVLSGGGAKGAAYPGAMLALEEKGMLDGIRSMSGSSAGGITAALLASGMSPAAFKTLSDKMDLISLLDSSNKKLKLFQHISSEIGASLKKGLGNKIGGFSELLLNVLPRIDSRAEPLERLLRDETRKAVLGQIATHPEVARQPTVAAIASRLQSGSGVTFGDLDRLSAYIPQIKTLNITGTAMFEGRPQLVVFNASHTPDLEVAQAAHISGSFPGVFQKVSLSDQPYQAGVEWTEFQDGGVMINVPVPEMIDKNFDSGPLRRNDNLILEFEGEAGEVAPDRGTRGGALKGWVVGVPALQAREMLQLEGLEELREQTVVVPLKSERGDFSGMLGGTLNFTMPDEIKAHLQERLQERVGEHLEKRLQASERHTFASLDEALLALDDSMLTSVAQQNPEITDGAVAFRQKARDAFTELTVAIVSANGLAGRLKLDEAMRSALQRLDALADTPERLAWLAAELNHADNVDHQQLLDAMRGQTVQSPVLAAALAEAQRRKVAVIAENIRKEVIFPSLYRPGQPDSNVALLRRAEEQLRHATSPAEINQALNDIVDNYSARGFLRFGKPLSSTTVEMAKAWRNKEFT
- Ka: 3.08e+07 M⁻¹ and 1.77e+07 M⁻¹
